Test results taken from patent US20220259297A1 (ACCELERON PHARMA, published 2022).

Columns and labels:
Experiment in all cases: SPR (Biacore); receptor-Fc captured by anti-Fc antibody, ligand injected
BMP10 = target: T1, BMP10 (UniProt O95393 317-424)
T1 sequence (looked up): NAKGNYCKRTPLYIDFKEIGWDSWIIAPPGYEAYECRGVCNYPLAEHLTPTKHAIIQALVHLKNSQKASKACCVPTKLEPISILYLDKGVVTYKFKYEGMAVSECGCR
Protocol: (§1) A Biacore™-based binding assay was used to compare ligand binding selectivity of an exemplary ALK4-Fc:ActRIIB-Fc heterodimeric complex as described above with the binding selectivity of ActRIIB-Fc and ALK4-Fc homodimer complexes. The ALK4-Fc:ActRIIB-Fc heterodimer, ActRIIB-Fc homodimer, and ALK4-Fc homodimer were independently captured onto the system using an anti-Fc antibody. Ligands were injected and allowed to flow over the captured receptor protein. Results are summarized in the Table 5 below, in which ligand off-rates (kd) most indicative of effective ligand traps are denoted by gray shading.

BMP6 = target: T2, BMP6 (UniProt P22004 382-513, limits assumed)
T2 sequence (looked up): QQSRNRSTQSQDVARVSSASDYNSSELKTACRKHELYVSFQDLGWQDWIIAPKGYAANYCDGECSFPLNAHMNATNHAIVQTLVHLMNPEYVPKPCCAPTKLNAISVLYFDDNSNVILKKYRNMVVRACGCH
Protocol: as §1

GDF11 = target: T3, GDF11 (UniProt O95390 299-407)
T3 construct: also called BMP11
T3 sequence (looked up): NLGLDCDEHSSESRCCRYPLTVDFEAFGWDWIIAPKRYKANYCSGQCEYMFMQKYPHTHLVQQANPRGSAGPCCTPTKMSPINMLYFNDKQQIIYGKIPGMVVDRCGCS
Protocol: as §1

GDF3 = target: T4, GDF3 (UniProt Q9NR23 251-364)
T4 sequence (looked up): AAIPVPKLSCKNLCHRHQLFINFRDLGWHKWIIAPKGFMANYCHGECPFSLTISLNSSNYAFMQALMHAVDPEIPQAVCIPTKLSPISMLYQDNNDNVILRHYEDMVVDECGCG
Protocol: as §1

activin A = target: T5, activin A (UniProt P08476 311-426)
T5 sequence (looked up): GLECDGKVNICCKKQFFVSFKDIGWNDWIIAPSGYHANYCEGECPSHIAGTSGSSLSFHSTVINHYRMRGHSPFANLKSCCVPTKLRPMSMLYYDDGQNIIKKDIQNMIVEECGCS
Protocol: as §1

activin B = target: T6, activin B (UniProt P09529 293-407)
T6 sequence (looked up): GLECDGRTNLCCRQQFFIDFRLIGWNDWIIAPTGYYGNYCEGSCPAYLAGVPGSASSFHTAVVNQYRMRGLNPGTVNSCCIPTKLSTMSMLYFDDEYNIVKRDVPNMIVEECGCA
Protocol: as §1

GDF8 = target: T7, GDF8 (UniProt O14793 267-375)
T7 construct: also called myostatin
T7 sequence (looked up): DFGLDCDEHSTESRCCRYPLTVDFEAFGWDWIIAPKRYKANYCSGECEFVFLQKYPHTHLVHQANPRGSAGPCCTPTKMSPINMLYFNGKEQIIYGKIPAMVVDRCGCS
Protocol: as §1

B1: ALK4-Fc:ActRIIB-Fc heterodimer (Fc fusion)
chain 1: SGPRGVQALLCACTSCLQANYTCETDGACMVSIFNLDGMEHHVRTCIPKVELVPAGKPFYCLSSEDLRNTHCCYTDYCNRIDLRVPSGHLKEPEHPSMWGPVETGGGTHTCPPCPAPELLGGPSVFLFPPKPKDTLMISRTPEVTCVVVDVSHEDPEVKFNWYVDGVEVHNAKTKPREEQYNSTYRVVSVLTVLHQDWLNGKEYKCKVSNKALPAPIEKTISKAKGQPREPQVYTLPPSREEMTKNQVSLTCLVKGFYPSDIAVEWESNGQPENNYDTTPPVLDSDGSFFLYSDLTVDKSRWQQGNVFSCSVMHEALHNHYTQKSLSLSPG
chain 2: GRGEAETRECIYYNANWELERTNQSGLERCEGEQDKRLHCYASWRNSSGTIELVKKGCWLDDFNCYDRQECVATEENPQVYFCCCEGNFCNERFTHLPEAGGPEVTYEPPPTAPTGGGTHTCPPCPAPELLGGPSVFLFPPKPKDTLMISRTPEVTCVVVDVSHEDPEVKFNWYVDGVEVHNAKTKPREEQYNSTYRVVSVLTVLHQDWLNGKEYKCKVSNKALPAPIEKTISKAKGQPREPQVYTLPPSRKEMTKNQVSLTCLVKGFYPSDIAVEWESNGQPENNYKTTPPVLKSDGSFFLYSKLTVDKSRWQQGNVFSCSVMHEALHNHYTQKSLSLSPGK
notes: The C-terminal lysine is optional; also called ALK4-Fc:ActRIIB-Fc heterodimeric complex; ALK4:ActRIIB heterodimer
koff (BMP10): 0.0041 s⁻¹
kon (BMP10): 5.6e+07 M⁻¹ s⁻¹
koff (BMP6): 0.0055 s⁻¹
kon (BMP6): 2e+06 M⁻¹ s⁻¹
koff (GDF11): 0.00011 s⁻¹
kon (GDF11): 3.8e+07 M⁻¹ s⁻¹
koff (GDF3): 0.017 s⁻¹
kon (GDF3): 3.4e+06 M⁻¹ s⁻¹
koff (activin A): 0.00015 s⁻¹
kon (activin A): 1.3e+07 M⁻¹ s⁻¹
koff (activin B): 4e-05 s⁻¹
kon (activin B): 7.1e+06 M⁻¹ s⁻¹
koff (GDF8): 0.00021 s⁻¹
kon (GDF8): 390000 M⁻¹ s⁻¹
